Measurements as given in PMC10769878.

Target: phi3T_93 (Bacillus subtilis phage phi3T)
Assay: SEC-MALS; 20 µl at 1 mg/ml on Shodex KW-402.5-4F, 100 mM HEPES pH 7.5, 250 mM NaCl, 0.3 ml/min

stoichiometry N: 2
Substance: phi3T_93 (natural protein)
